Broadly, the Kd is a measure of binding affinity in units of concentration.

This is an account of results in US7067117 (CAMBRIDGE UNIVERSITY TECHNICAL SERVICES, dated 2006).

For test [1], the target named is chemokine receptors on THP-1 cells. Nature of the test: cell-based or functional assay.
Test [2] deals with T1, Duffy Antigen Receptor for Chemokines (DARC) (human) (UniProt Q16570).
T1 sequence (looked up): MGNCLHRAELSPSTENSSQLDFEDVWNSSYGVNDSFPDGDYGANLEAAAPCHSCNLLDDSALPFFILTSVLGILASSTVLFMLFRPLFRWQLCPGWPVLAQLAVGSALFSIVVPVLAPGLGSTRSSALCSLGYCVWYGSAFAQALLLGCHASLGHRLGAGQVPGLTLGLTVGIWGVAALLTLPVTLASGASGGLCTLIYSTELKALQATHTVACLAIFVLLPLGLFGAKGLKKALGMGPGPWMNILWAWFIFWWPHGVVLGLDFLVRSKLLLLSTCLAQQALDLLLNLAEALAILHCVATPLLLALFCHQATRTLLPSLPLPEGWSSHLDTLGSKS
Nature of the test: DARC binding; given as 'affinity constant'.

Test [3] addresses chemokine receptors on THP-1 cells. Nature of the test: binding to chemokine receptors on THP-1 cells; given as 'association constant'.
Test [4] addresses T1, Duffy Antigen Receptor for Chemokines (DARC) (human). Kind of test: estimated ka for binding to red blood cells divided by inhibitory ED50 (THP-1 migration).
In test [5] the target is chemokine receptors on THP-1 cells. Kind of test: cell-based or functional assay. This is another data set of the same source.
In test [6] the target is T1, Duffy Antigen Receptor for Chemokines (DARC) (human). Nature of the test: ka for red blood cells divided by ED50.
For test [7] the target is unchanged. Nature of the test: estimated ka for binding to red blood cells divided by average inhibitory ED50 (THP-1 migration).
Test [8] addresses T2, Duffy Antigen Receptor for Chemokines (DARC) (human, UniProt Q16570 1-336).
T2 construct: whole, on cells
T2 sequence (looked up): T1 sequence (looked up)
Nature of the test: Duffy binding. As to the method:
(§1) To overcome this difficulty, the ka for association of DARC with peptide 3(1–12)[MCP-1] (SEQ ID NO:1) and peptide 2(1–15)[MCP-1] […] After binding has reached equilibrium (30 minutes at 37° C.), the cells are separated from the unbound label by centrifugation for 5 minutes through a sucrose gradient. Counts associated with the cells are then determined by gamma-counting scintigraphy. […] Furthermore, Scatchard analysis confirms the presence of a single high affinity binding site with 500–1000 copies per cell, consistent with the known properties of DARC.

Test [9] addresses chemokine receptors on THP-1 cells. Nature of the test: cell-based or functional assay. The source holds these as a separate data set.
Test [10] concerns the target T3, Duffy Antigen Receptor for Chemokines (DARC) (human, UniProt Q16570 1-336).
T3 chain: T1 sequence (looked up)
Nature of the test: DARC binding.

Test [11] deals with T2, Duffy Antigen Receptor for Chemokines …. Kind of test: competition binding analysis using red blood cells. The method, then: as §1
The target is the same in test [12]. Nature of the test: ka for binding to red blood cells divided by ka for binding to THP-1 cells.
Test [13] concerns the target chemokine receptors on THP-1 cells. Kind of test: estimated ka for binding to THP-1 cells (competition binding analysis), printed under 'AVERAGE ED50 (µM)'.
Test [14] concerns the target T2, Duffy Antigen Receptor for Chemokines …. Nature of the test: DARC binding. As to the method:
as §1

In test [15] the target is T4, Duffy Antigen Receptor for Chemokines (DARC) (human), Q16570.
T4 chain: T1 sequence (looked up)
Nature of the test: estimated ka for binding to red blood cells divided by average inhibitory ED50 (THP-1 migration). Particulars: remark: other sources report otherwise.

The target in test [16] is T2, Duffy Antigen Receptor for Chemokines …. Nature of the test: DARC binding on red blood cells. The method, then: as §1
The target of test [17] is chemokine receptors on the surface of Jurkat cells. Kind of test: biotinylated peptide binding to Jurkat cells.
Test [18] concerns the target chemokine receptors on THP-1 cells. Nature of the test: biotinylated derivative mixed with THP-1 cells.
For test [19], the target named is T4, Duffy Antigen Receptor for Chemokines …. Nature of the test: Duffy binding.
In another test the target is CCR5, P51681. Nature of the test: method not described; given as 'affinity constant'.
In the next test the target is T5, CXCR4, P61073.
T5 chain: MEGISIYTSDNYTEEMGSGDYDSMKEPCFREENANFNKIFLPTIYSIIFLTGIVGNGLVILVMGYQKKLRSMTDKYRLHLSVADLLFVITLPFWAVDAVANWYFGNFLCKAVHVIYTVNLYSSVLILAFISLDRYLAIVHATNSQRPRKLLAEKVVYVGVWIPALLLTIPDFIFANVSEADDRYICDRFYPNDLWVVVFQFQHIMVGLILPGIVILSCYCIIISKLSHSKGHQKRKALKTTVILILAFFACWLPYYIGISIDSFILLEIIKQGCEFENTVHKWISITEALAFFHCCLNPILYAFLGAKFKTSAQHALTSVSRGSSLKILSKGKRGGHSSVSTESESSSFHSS
Nature of the test: method not described; given as 'affinity constant'.

Test [20] deals with T4, Duffy Antigen Receptor for Chemokines …. Nature of the test: Duffy binding, LRD against LFL peptide 2(1-15)[MCP-1].
Test [21] has the same target. Kind of test: DARC binding. As to conditions: modification not given.

“And” between values parts separate entries of the source, which are not always exact repeats. Equal values may be shown once. Read-outs that look alike come from different tables or passages of the source. Square brackets hold non-standard residues; d marks the D form. Ends that are not written are not given here.

Sequence of CCR5, P51681 (P51681 whole entry): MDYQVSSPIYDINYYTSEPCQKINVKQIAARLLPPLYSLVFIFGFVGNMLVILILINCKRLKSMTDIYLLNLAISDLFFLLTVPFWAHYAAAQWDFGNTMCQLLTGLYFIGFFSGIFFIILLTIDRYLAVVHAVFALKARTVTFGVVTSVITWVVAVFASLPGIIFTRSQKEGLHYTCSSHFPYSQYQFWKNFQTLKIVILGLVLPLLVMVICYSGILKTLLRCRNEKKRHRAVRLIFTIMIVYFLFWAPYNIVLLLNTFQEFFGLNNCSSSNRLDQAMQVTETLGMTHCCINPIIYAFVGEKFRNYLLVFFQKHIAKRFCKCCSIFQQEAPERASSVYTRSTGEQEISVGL

For the molecule Peptide 3(7-9)[MCP-1], i.e, KQK, in [1], the % inhibition of migration induced by MCP-1 at 100 µM tripeptide came out at 95%, the % inhibition of migration induced by SDF1α at 100 µM tripeptide amounted to 29%, the ED50 as inhibitor of MCP-1 induced THP-1 migration was in the range of 2 to 5 µM and the ED50 for inhibition of THP-1 migration induced by the one chemokine it is specific for (MCP-1) amounted to 6 µM. For the same molecule, the ED50 for inhibition of THP-1 migration versus MCP1 in test [1] came out at 7 µM. In test [2], the Kd was found to be 15 µM. The Kd in test [3] was 0.5 µM and 1 µM. Moreover, the Duffy selectivity in test [4] is 22.3.

B1: Peptide 3(10-12)[MCP-1], i.e., WVQ (peptide)
peptide: WVQ
Consider B1, for which, in test [5], the ED50 for inhibition of THP-1 migration versus IL8 is < 1 µM, the ED50 for inhibition of THP-1 migration versus MCP1 is 8 µM, the ED50 for inhibition of THP-1 migration versus MIP1α is < 1 µM and the ED50 for inhibition of THP-1 migration versus SDF1α was < 1 µM. In [5], this molecule displayed an ED50 for inhibition of migration induced by IL-8 of 1 µM, an ED50 for inhibition of migration induced by MCP-1 of 8 µM, an ED50 for inhibition of migration induced by MIP1α of 7.5 µM and an ED50 for inhibition of migration induced by RANTES of 1.5 µM. Besides, in test [5], the ED50 for inhibition of migration induced by SDF1α was determined as 2 µM and the average ED50 for inhibition of THP-1 migration induced by each of the chemokines amounted to 2 µM. Besides, in test [6], the Duffy selectivity amounted to 10. This molecule had a Kd in test [2] of 2 µM. Moreover, the Duffy selectivity in test [7] is 24.8.

B2: peptide 2(1-15)[MCP-1] (peptide)
peptide: SYRRITSSKCPKEAV
notes: synthetic linear L-form peptide; also called Pep2[MCP1]; Pep2(1-15)[MCP1]
B2: the Kd in test [8] was 100 µM; in test [10], 0.35 µM; in test [11], < 0.5 µM; in [13], 2 µM. Further, the ED50 for inhibition of chemokine-induced THP-1 migration in [9] was > 100 µM. In test [9], this molecule showed an inhibition of chemokine-induced THP-1 migration at 100 µM of 19%. This molecule also came in with a promotion of THP-1 migration (agonist activity) in test [9] of 10 µM. For the same molecule, in test [12], the Duffy selectivity was found to be 0.18 ratio.

B3: Ser10 variant of peptide 2(1-15)[MCP-1] (peptide)
peptide: SYRRITSSKSPKEAV
In the case of B3, the Kd in test [14] was 20 to 100 µM.

B4: peptide 3(1-12)[MCP-1] (peptide)
peptide: EICADPKQKWVQ
On to B4, for which, in test [9], the % inhibition of THP-1 migration at 100 µM versus IL8 is 103%, the % inhibition of THP-1 migration at 100 µM versus MCP-1 came to 112%, the % inhibition of THP-1 migration at 100 µM versus MIP1α worked out at 99% and the % inhibition of THP-1 migration at 100 µM versus SDF-1α came out at 107%. Further, in test [9], the ED50 for inhibition of THP-1 migration versus IL8 was found to be 14 µM, the ED50 for inhibition of THP-1 migration versus MCP-1 turned out to be 8 µM, the ED50 for inhibition of THP-1 migration versus MIP1α stood at 8 µM and the ED50 for inhibition of THP-1 migration versus SDF-1α is 10 µM. Besides, in test [9], the average ED50 for inhibition of THP-1 migration induced by each of the chemokines stood at 10 µM; the inhibition of MCP-1 induced THP-1 migration at 100 µM, peptide incubated with the cells was > 99%; the inhibition of MCP-1 induced THP-1 migration at 100 µM, peptide incubated with the chemokine is 17%. Also, the Duffy selectivity in test [15] was 1.

B5: Peptide 2(1-9)[MCP-1] (peptide)
peptide: SYRRITSSK
For the molecule B5, the Kd in [16] was ~50 µM.

B6: biotinylated peptide 2(1-15)[MCP-1] (peptide)
peptide: SYRRITSSKCPKEAV
modifications: also: biotinylated, position not given here
As to B6, the results for the Kd in test [17] and in test [18] were 3 µM and 1.9 µM, respectively.

B7: LRD peptide 2(1-15)[MCP-1] (peptide)
chain: [dV][dA][dE][dK][dP][dC][dK][dS][dS][dT][dI][dR][dR][dY][dS]
For B7, the Kd in test [19] was 25 µM; in the test with CCR5, P51681, < 0.1 µM; with CXCR4, P61073 it was < 0.1 µM; in test [21], 18 µM. The fold decrease in Duffy binding against the LFL peptide in [20] turned out to be 100 fold.
